The values below come from article PMC12051542, “Identification of the phosphatase essential for riboflavin biosynthesis in Aquifex aeolicus” (The Journal of Biological Chemistry, 2025).

Data set [1] has as its target putative phosphatase 17 (PP17), a histidine family phosphatase (HFP), Aquifex aeolicus (Aquifex aeolicus). In words: SEC; preparative gel filtration, 120 ml HiLoad 16/600 Superdex 75 prep grade column, 50 mM Hepes pH 8.0, 150 mM NaCl, 20% glycerol.
Data set [2] concerns the molecule itself. In words: SEC; 120 ml HiLoad 16/600 Superdex 75 prep grade column, 50 mM Hepes pH 8.0, 150 mM NaCl, 20% glycerol; molecular weight from a standard curve of commercial standard proteins (65 kDa).

Regarding “putative phosphatase 17 (PP17), a histidine family phosphatase (HFP), Aquifex aeolicus (enzyme)”, the stoichiometry N in data set [1] turned out to be 2.

B1: putative phosphatase 11 (PP11), annotated as a myo-inositol-1(or 4)-monophosphatase (IMP), Aquifex aeolicus (enzyme)
chain: MENLKKYLEVAKIAALAGGQVLKENFGKVKKENIEEKGEKDFVSYVDKTSEERIKEVILKFFPDHEVVGEEMGAEGSGSEYRWFIDPLDGTKNYINGFPIFAVSVGLVKGEEPIVGAVYLPYFDKLYWGAKGLGAYVNGKRIKVKDNESLKHAGVVYGFPSRSRRDISIYLNIFKDVFYEVGSMRRPGAAAVDLCMVAEGIFDGMMEFEMKPWDITAGLVILKEAGGVYTLVGEPFGVSDIIAGNKALHDFILQVAKKYMEVAV
notes: Aquifex aeolicus putative phosphatase 11, annotated as myo-inositol-1(or 4)-monophosphatase; codon optimised, in pET20b with a stop codon before the C-terminal histidine tag so that the protein is expressed in the native form; Untagged; Two magnesium ions and a phosphate in the active site of the structure; source: E. coli BL21 (DE3), purified (heat 70 °C, gel filtration)
Turning to B1, in data set [2], the “stoichiometry N” value was determined as 2.
